In PMC12666738:
Numbering of substitutions follows the chain as printed. Names and notes keep the numbering of the source. Values belong to the molecule of their own block, whether it stands above or below them.

Columns and labels:
[1] = molecular target: mRFP-tagged CASK I672V (human) (UniProt O14936); experiment: co-IP; HEK293T cells cotransfected, lysed in RIPA buffer 24 h after transfection; mRFP-tagged CASK precipitated with magnetic RFP-Trap beads, 2 h at 4°C, five washes in RIPA; Western blot
[2] = molecular target: T1, GST-tagged C-terminal domain of SALM1, Q9ULH4; experiment: pull-down; conditions: chain shown with the change; n = 4; His6-signals normalized to GST-signals derived from the same blot; parent: est. 0.85; read off a plot
T1 chain: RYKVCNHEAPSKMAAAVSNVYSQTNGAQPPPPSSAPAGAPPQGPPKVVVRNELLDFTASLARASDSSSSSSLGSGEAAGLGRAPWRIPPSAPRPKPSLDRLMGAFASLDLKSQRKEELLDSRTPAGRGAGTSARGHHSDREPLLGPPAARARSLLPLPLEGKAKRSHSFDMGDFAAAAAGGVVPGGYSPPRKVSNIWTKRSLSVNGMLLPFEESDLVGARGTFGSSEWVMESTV

[3] = molecular target: T2, GST-tagged C-terminal domain of Nrxn1β, Q63373; experiment: pull-down; conditions: chain shown with the change; n = 4; His6-signals normalized to GST-signals derived from the same blot; parent: est. 2.9; read off a plot
T2 chain: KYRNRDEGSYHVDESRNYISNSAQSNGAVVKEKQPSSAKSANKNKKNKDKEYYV

[4] = molecular target: T3, GST-tagged C-terminal domain of CNTNAP2, Q9UHC6; experiment: pull-down; conditions: chain shown with the change; n = 4; His6-signals normalized to GST-signals derived from the same blot; parent: est. 3.1; read off a plot
T3 chain: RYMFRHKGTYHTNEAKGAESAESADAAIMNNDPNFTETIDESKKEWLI

reduction of bound Nrxn1β against CASK WT [1]: 50%
Molecule: HA-tagged Neurexin-1β (from UniProt Q63373 47-468) (natural protein)

response [2]: 0.7 | response [3]: 0.9 | response [4]: 1.5
B1: His6-SUMO-tagged CASK PSG supramodule WT, O14936-2 G521V (protein)
chain: MADDDVLFEDVYELCEVIGKGPFSVVRRCINRETGQQFAVKIVDVAKFTSSPGLSTEDLKREASICHMLKHPHIVELLETYSSDGMLYMVFEFMDGADLCFEIVKRADAGFVYSEAVASHYMRQILEALRYCHDNNIIHRDVKPHCVLLASKENSAPVKLGGFGVAIQLGESGLVAGGRVGTPHFMAPEVVKREPYGKPVDVWGCGVILFILLSGCLPFYGTKERLFEGIIKGKYKMNPRQWSHISESAKDLVRRMLMLDPAERITVYEALNHPWLKERDRYAYKIHLPETVEQLRKFNARRKLKGAVLAAVSSHKFNSFYGDPPEELPDFSEDPTSSGLLAAERAVSQVLDSLEEIHALTDCSEKDLDFLHSVFQDQHLHTLLDLYDKINTKSSPQIRNPPSDAVQRAKEVLEEISCYPENNDAKELKRILTQPHFMALLQTHDVVAHEVYSDEALRVTPPPTSPYLNGDSPESANGDMDMENVTRVRLVQFQKNTDEPMGITLKMNELNHCIVARIMHVGMIHRQGTLHVGDEIREINGISVANQTVEQLQKMLREMRGSITFKIVPSYRTQSSSCERDSPSTSRQSPANGHSSTNNSVSDLPSTTQPKGRQIYVRAQFEYDPAKDDLIPCKEAGIRFRVGDIIQIISKDDHNWWQGKLENSKNGTAGLIPSPELQEWRVACIAMEKTKQEQQASCTWFGKKKKQYKDKYLAKHNAVFDQLDLVTYEEVVKLPAFKRKTLVLLGAHGVGRRHIKNTLITKHPDRFAYPIPHTTRPPKKDEENGKNYYFVSHDQMMQDISNNEYLEYGSHEDAMYGTKLETIRKIHEQGLIAILDVEPQALKVLRTAEFAPFVVFIAAPTITPGLNEDESLQRLQKESDILQRTYAHYFDLTIINNEIDETIRHLEEAVELVCTAPQWVPVSWVY

response [2]: 0.15 | response [3]: 0.9 | response [4]: 0.45
B2: His6-SUMO-tagged CASK PSG supramodule WT, O14936-2 Y723C (protein)
chain: MADDDVLFEDVYELCEVIGKGPFSVVRRCINRETGQQFAVKIVDVAKFTSSPGLSTEDLKREASICHMLKHPHIVELLETYSSDGMLYMVFEFMDGADLCFEIVKRADAGFVYSEAVASHYMRQILEALRYCHDNNIIHRDVKPHCVLLASKENSAPVKLGGFGVAIQLGESGLVAGGRVGTPHFMAPEVVKREPYGKPVDVWGCGVILFILLSGCLPFYGTKERLFEGIIKGKYKMNPRQWSHISESAKDLVRRMLMLDPAERITVYEALNHPWLKERDRYAYKIHLPETVEQLRKFNARRKLKGAVLAAVSSHKFNSFYGDPPEELPDFSEDPTSSGLLAAERAVSQVLDSLEEIHALTDCSEKDLDFLHSVFQDQHLHTLLDLYDKINTKSSPQIRNPPSDAVQRAKEVLEEISCYPENNDAKELKRILTQPHFMALLQTHDVVAHEVYSDEALRVTPPPTSPYLNGDSPESANGDMDMENVTRVRLVQFQKNTDEPMGITLKMNELNHCIVARIMHGGMIHRQGTLHVGDEIREINGISVANQTVEQLQKMLREMRGSITFKIVPSYRTQSSSCERDSPSTSRQSPANGHSSTNNSVSDLPSTTQPKGRQIYVRAQFEYDPAKDDLIPCKEAGIRFRVGDIIQIISKDDHNWWQGKLENSKNGTAGLIPSPELQEWRVACIAMEKTKQEQQASCTWFGKKKKQYKDKYLAKHNADLVTCEEVVKLPAFKRKTLVLLGAHGVGRRHIKNTLITKHPDRFAYPIPHTTRPPKKDEENGKNYYFVSHDQMMQDISNNEYLEYGSHEDAMYGTKLETIRKIHEQGLIAILDVEPQALKVLRTAEFAPFVVFIAAPTITPGLNEDESLQRLQKESDILQRTYAHYFDLTIINNEIDETIRHLEEAVELVCTAPQWVPVSWVY

response [2]: 0.15 | response [3]: 1 | response [4]: 0.45
B3: His6-SUMO-tagged CASK PSG supramodule WT, O14936-2 P673L (protein)
chain: B2 chain with P673L, C723Y
